The assay has as its target T1, UC4F10-11 hamster anti-mouse CTLA4 antibody.
T1 construct: also called mouse anti-CTLA4 antibody (clone UC4 F10-11); anti-CTLA4
Description: bacterial display / FACS screening with labelled anti-CTLA4 antibody.
Description: Subsequent rounds of enrichment were carried out using FACS. For the initial round of FACS, bacteria were sorted using biotinylated target (5 nM) and secondary labeling step with streptavidin phycoerythrin. […] Relative affinity and off-rate screening of individual clones were performed using a ficin digested Dylight-labeled Fab antibody fragment to reduce avidity effects of the bivalent antibody due to the expression of multiple peptides on the bacterial surface. As an additional test of target specificity, individual clones were screened for binding in the presence of 20 uM E. Coli depleted IgG as a competitor.

T1 sequence (VH, as listed by the source limits assumed, chain 1 of 2): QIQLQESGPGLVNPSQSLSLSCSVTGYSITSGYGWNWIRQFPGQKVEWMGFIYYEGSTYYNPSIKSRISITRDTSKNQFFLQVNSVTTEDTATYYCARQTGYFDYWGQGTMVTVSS
T1 sequence (VL, as listed by the source limits assumed, chain 2 of 2): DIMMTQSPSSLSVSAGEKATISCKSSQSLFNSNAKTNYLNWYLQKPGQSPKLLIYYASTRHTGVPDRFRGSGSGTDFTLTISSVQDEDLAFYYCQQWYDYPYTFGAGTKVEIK

B1: Negative control (does not bind anti-CTLA4) (peptide)
peptide: PCSEWQSMVQPRCYY
notes: The printed peptide has A where the printed DNA encodes Q; also called MMneg; negative control MM
Consider B1, for which the binding result was “no binding”.

For the origin of these results see patent publication US20130309230A1 (published 2013).
